Consider 17 molecules from US20250074946A1 (HEBEI FITNESS BIOTECHNOLOGY, published 2025).

The target of the first experiment is HLA-DR1 (human). Kind of experiment: fluorescence polarization competition; displaces 25 nM fluorescently-labeled polypeptide from 500 nM HLA-DR1. (In general: In fluorescence polarisation assays a small probe gives low polarisation when free and higher when bound to something large.)
Broadly, the IC50 is the concentration that gives 50% inhibition. FKGRQAGAGE [APL41] returned an IC50 of 88.4 µM. Same read-out and setting: the figure for IWYINCFGCHTAAML [APL56] is 69.2 µM. IWYINCFGCRTAAML [APL55] gave a concentration for half-maximal inhibition (IC50) of 98.8 µM. On to RSGTLASAETGVG [APL60], for which the IC50 is 61.7 µM.

In a further experiment the target is HLA-DR1 (human). Described as above. This is another data set of the same source.
Turning to FKGEQAGAGE [FNS007 (APL2)], the IC50 stood at 3.37 µM. On the same count and under the same terms, for RSFTLASSATGVG [APL17] the value was 3.53 µM. RSFTLAASETGVG [APL16]: the concentration for half-maximal inhibition (IC50) is 5.55 µM.

For the molecule IWYISCFGCETHAML [APL9], the IC50 stood at 5.09 µM. Molecule SIDLKDKKYKNIGAKLVQLVANNTNEEA [APL20] registered an IC50 of 3.88 µM. Regarding RSFTAASSETGVG [APL14], the IC50 was determined as 6.54 µM.

In the case of MGPKGRTVIIEQSLGSPKVTK (also called ALP21) [APL21], the IC50 is 4.15 µM. Regarding IWYINCFVCETHAML [APL12], the IC50 stood at 5.2 µM. On to IWYINCFACETHAML [APL11], for which the half-inhibitory concentration (IC50) stood at 3.98 µM. As for IWYITCFGCETHAML [APL10], the IC50 stood at 5.87 µM. With RSFTLASSEAGVG [APL18], the IC50 is 4.88 µM. RSFALASSETGVG [APL13] registered an IC50 of 5.02 µM. The same measure, in the same setting: for IWYIQCFGCETHAML [APL8] the value was 5.47 µM.
